Here are results for 23 sequences from the DeepSol protein solubility set.

The data set can be described thus: soluble on expression in E. coli; label from the status in PepcDB or PDB records.
Regarding “MGSDKIHHHHHHMTIGLSCNALKYGGGLERYAIDLARGLADAGVRPLVFARSFDSSVPEYQCVEPRRINVSFLPGKCRDAWFSWRLRAARRAAPVDVLIGCNRVDSSDIAICGGTHLGFLDAIGRMPTFSDRRQIALERRQYARARFVVAHSMLMRDELRRFYGLSDDKIRVLFPPVDAARFTPVDAVRRAELRTRFGFADDEVVLLFPSSSHERKGLPLIEAILRDAGPRVVVAVAGRPPERTSERLRYVGYVKDIEDGYRAADFTILASKYEPFGLVGVESVMCGTPVILPSNIGCCDAIAPSAKLVFAPGDAAGLRGMLDEAVRRVRAGAVRVESGAAARAAIQYDPSVARHVAQLLDLAAEAASDRRNGGR”, the “soluble on expression in E. coli” value was “not soluble”.

For “MLFTISENVKEAAQYFVEYKIQSVSDLKEFARVMKEYERKGDSFIHELVVQLNKTFITPIEREDIHQLAMKMDDVLDGFEQCSARFEMFSFTEIDEHMAKFFDYIYQSTIEIVHALELLANKKLLDMRQHAIKIKDYETKCDEILRASIKNLFVTQKDPIKIIQYKELYEMLEEIADSCEDVANTLETIIMRNA”, the “soluble on expression in E. coli” value was “not soluble”.

Take “MSDALVWQVIRNNSAFLRTQRGIGKRFSTEKFNLKKVNSPKYSGLANKHAIDVSAAAKGVVVSTKNEKGRPAKAVTTSTLSKTPVASVRRLAKNAGFNKFNKLAQRRAAAIVRSQVKKAKVQKTDA”: the “soluble on expression in E. coli” value was “not soluble”.

Turning to “RRFEPLLLLPIGFGGLLSNIPEAGLAMTALDHLLHYAHTEQLTIIAEKVNSSSLDVHTIKQAIAFAPPSVQNELEVIASDLGYNAG”, the “soluble on expression in E. coli” value is recorded as “not soluble”.

On to “MTIEDLQAFMKREFPQLGEAFEIVTVDEGSATMRLHADAQHLRPGGTVSGPSLFALADVAAYAAILAHIGPVALAVTTNLNINFLRKPSPGTVEAVAHLLKLGKRLAVLDISLTDGANGELVAHATATYSIPPRLEHHHHHH”, for which the “soluble on expression in E. coli” value was “soluble”.

Consider “VKAKKQETAATMKDVALKAKVSTATVSRALMNPDKVSQATRNRVEKAAREVGYLPQPMGRNVKRNESRTILVIVPDICDPFFSEIIRGIEVTAANHGYLVLIGDCAHQNQQEKTFIDLIITKQIDGMLLLGSRLPFDASIEEQRNLPPMVMANEFAPELELPTVHIDNLTAAFDAVNYLYEQGHKRIGCIAGPEEMPLCHYRLQGYVQALRRCGIMVDPQYIARGDFTFEAGSKAMQQLLDLPQPPTAVFCHSDVMALGALSQAKRQGLKVPEDLSIIGFDNIDLTQFCDPPLTTIAQPRYEIGREAMLLLLDQMQGQHVGSGSRLMDCELIIRGSTRALP”, for which the “soluble on expression in E. coli” value is reported as “soluble”.

As for “MSLATTREEALHIHRENQGKLESKSKVPVRNARDLSLAYSPGVAEPCKEIFEDVETVYEYTMKGNMVAVVSNGTAVLGLGNIGPEASLPVMEGKAVLFKSFAGVDAFPICLRTTDVDQIVETVKLLEPTFGGVNLEDIAAPSCFEIEERLKKETNIPVFHDDQHGTAIVTLAGLINALKLTGKRMSEIKVVANGAGAAGIAIIKLMQRMGVRDIIMCDSKGAIYDGRPYGMNDMKAEVAKWTNRDKIDGGLGDVLKGADVFIGVSVAGALTKEMIENMNDDPIIFAMANPVPEIMPEEAKAAGAKVIGTGRSDFPNQVNNVLAFPGIFRGALDARATHINEEMKVAAVHAIADLVAEEDLDPDYVIPAPFDPRVAPAVAAAVAKTAMETGVARRKVDPAEVEAKTKKLAIIEEGHHHHHH”, the “soluble on expression in E. coli” value is reported as “soluble”.

For the sequence “SADHDLFRETVYAESLDEALERYSVDTVGDSELATLLPHIEKTFGFPTWAQINEALDTYPDREFVNTVTELLSTANPESLVAAVELMVASARSTTLREELDHEVVLGEYIRSRPNFAEGVRAVLVDKDRNADFTPATTGEVDVTPMRKLLKN”, the “soluble on expression in E. coli” value was “not soluble”.

For “MAHHHHHHMKEKYTITPLARRTPNGVLTQVLTEARREAAERLRGMQEMKFTICTDIEEVLFKGRVHVNEMRLNDFLTREPDGRGVVDTNRDVLLEEFFKDPTKYIRDKGALNEIQAFGHYLSMKRAVKGEVIFDEDIRELCDRVSTTYRGGHWLLRR”, the “soluble on expression in E. coli” value is listed as “not soluble”.

For the sequence “SFFMGEKTFYHIKKENLILKARMFGKITSLGISGFVMQGTNCLVQIVCNKMLFMYGGDMYVGIMTVINSVREILSVPGSTLGSGAQPVLGYNYGAKQYERVRKA”, the “soluble on expression in E. coli” value is recorded as “not soluble”.

For the sequence “MSLCLSAQRLGEEPRVNSTGRYSGPMRVLHLASEVFPFSRSGGLGDVLGALPAVQARLGEDAEVTVLSPWYASLQGEPQELWRGEAWGEQAWLGELRQDGVRYLFLGLNEFQRPGLYHPDDVERFCAFGRAALPALDAVGVTPDVLHGHDWQAGLVVAHARLRGLRTAFSVHNLQYQGRWNLHEAAGWTGLPDWTFGPDGVEFFGDLNLMKAGLNFAGHVTTVSPTYAQEITTPQYGEGLEGLLVRLTHEGRLSGILNGLDQDRWNPRTDPDIAAYSDPAGKAGAVKALRQEFGLDDAPILATVSRLADQKGMDLLITALPELVRDWNVVVLGGGDPLLEAALTGWANHPRVAFASGMNEPLAHRIYAGAHAFAMPSRFEPCGLSQLIAMRYGTLPIVRETGGLADTVPPEVGFRFADATAPAFLQACREAQAAFQDPAQWQTRATRAMSLDFSWDGPARQYLELYRGLEGHHHHHH”, the “soluble on expression in E. coli” value is on record as “soluble”.

Take “MGSDKIHHHHHHMTLFLQKGYEETTMREIVHKSGRSKGAIYHHFSSKQEILNFQISLEMDNLRQCLDALISNNQLNAQQKFKGILTYFFENPSLTELTRLHWAEKLPFALLETLKNSLTVVAQYIEAIIQQEIKEKKLNCQYSKELSEILVLLFDIWLDPSIVDFDYQTACQRIDFIALLLEKFDLPLLDENDKNKLKNGLKHYDEKNTL”: the “soluble on expression in E. coli” value is “not soluble”.

Turning to “MGSDKIHHHHHHMKRFNIIITLSATLGLFSCELDKMPMDQVSDAVFWQKPADFELAANDFYFGLQEVSQYIDMNSDIAFGSGTNDVSDGSYLAPVNSDDWDNPWKFVQSTSYLLKKAEESGLSDEEIGRWKAEAHFFRAYNYWKLVKTYGGVPKIDIPLNTSSEELYTPRSSQQEIIDFIIEDLDKAIPLLPKQSGLTAEELGRTTQGAALALKARAALFEGTWQKYHGMADAGKYLDLAIQAAQAIVDSKEYELYREKGELSYKYLHILEGDDSKEVLLARRYYKLRATHNWTRELLLGAMVPTKNLADVYLCTDGLPIDKSKLFKGFQTQTSEFENRDSRMAQTFVVPGSEIFSEGGGWATVEPGFIGNNSTRTGYMIRKFMDETLDAVQFIGEYDFKEFRYGEVLLILAEALYEKNGQITDEQLDLTINDLRNRANMPRLTNAFVATNGLNMQEEIRRERTVELAFEGYRRDDLRRWGTAETVLPLAIRGVKFVGTEYQQKFPELVIGQDIQVDSEGFIIAQPASARKFQTPKHWLSPIPLQQVQLSKGTLEQNPGW”, the “soluble on expression in E. coli” value is given as “not soluble”.

For “MSLQILTRKMPGQFKVGCMDLMIEEAAGSGLFMRLFFPTDSEITGPSSLPVWIPRPEYAYGVGEYLGHSPHQMDLISSLVIGDKRVDCIDNAQLSTKSDKWPVLVFSHGLGGSRTFYSTYCTSLASHGYVVAAVEHRDSSACWTYKLVEKNGTLVEKPMKIKLVDRNDKDQFKIRNEQVGKRAEECAKAVKILEQLDSGNVKDKVIIGNNANLEFFKNKLLTTTASIIGHSFGGATSIASSSSDFQKAIVLDGWMYPLDQNQQEQAKQPIMFLNVGDWQWNENLEVMRKILPNNEGNILLTLSGAVHQSFTDFPFVFPNWLAKQFGVHGPTEPYLCMQSAIELTLSFLKDGKEGHHHHHH”, the “soluble on expression in E. coli” value is listed as “not soluble”.

As to “REAFVSIQTSTIPKTAYAAVNFVETQGEDESYTDSLSTDNKRDIYADFAVIEIPLFLTNHRDYQVFNEFIKPAIETYKQLGNSSFEKKQLDQHKNDNFYMLGYPLVESSIDALILNQRRQYNNSYTEKYTPQTLTKDQRTIDLSREVPTLIQNKTENSTGSQLLVNQSLSSTSEGIIE”, the “soluble on expression in E. coli” value is given as “soluble”.

Turning to “SAKFSKQSWGLENEALIVRCPRQGKPSYTVDWYYSQTNKSIPTQERNRVFASGQLLKFLPAAVADSGIYTCIVRSPTFNRTGYANVTIYKKQSDCNVPDYLMYSTVSGSEKNSKIYCPTIDLYNWTAPLEWFKNCQALQGSRYRAHKSFLVIDNVMTEDAGDYTCKFIHNENGANYSVTATRSFTVKDEQGFSLFPVIGAPAQNEIKEVEIGKNANLTCSACFGKGTQFLAAVLWQLNGTKITDFGEPRIQQEEGQNQSFSNGLACLDMVLRIADVKEEDLLLQYDCLALNLHGLRRHTVRLSRKNPSKECF”, the “soluble on expression in E. coli” value is listed as “soluble”.

Regarding “MGSDKIHHHHHHMKLVEITREEIRGDLVGLVPVGSIEQHGPHLPMGTDGIISEYIASKAEEKLKDITLLFPTIYYGVSLEHKGFPFVSLSFQTAISFFTDLLESVFNDLGLRRIIIVNGHGGNSYFLPLVQREFNMKHSDAKVIVFNTFGEEEKILFNVNDLHAGTIETSKIWAIGKSLVRVNKIDEIKNYEVRDGVFIYYSSREANQFGVLNDGKPIRVNEEYGKKILRDLVDKLIWTILNFKV”, the “soluble on expression in E. coli” value is on record as “not soluble”.

With “MAHHHHHHMDMLGAVVVENSNLTTTLPAPHTLHERPAEGFSPQRRVLLVPLTEAYEHTTGWMVPTEMEGAQLAMSLYVNDTPVSLPPNWQLSPAKEAAAVKTAMAVDITPLVLSIERDLFSLQVIFSGDVAEMEMWRGVIACVLVEEVELAQLGERIVSTYHKRRAPVIRRSPLSSCGERGVVAITEVSVKIQCPITTLTMEIPVRGMYCEHLQCMELAAVLIQCARQNVWNCPLCSAAMKPEDIIVNHRLKDWIASHSREVVAQVEYIVETELGRPLKIVYKAARPEQHSTIEVIDDEEK”, the “soluble on expression in E. coli” value was “not soluble”.

Turning to “MSLETKVAARDLSSLLSHCEAPVAALTVTAFKCKASACSVAPAPGSNTGLGALMSMAQAAQGLQTFPNIGDGLSNALTTALKTTGCFKVMAREDFEDLRREAEAAGITLKSASADYLVTGAITSLAVGAKTQSFGGGFVPLVGAVSRSTKSANISIDVRLVDVKASEVKASQTFDVSNERSSWGAGGAGWGGSGALFGAASSTQSPELDSVANESVIQAANYIVTQVAGSAAIPPVAAITKEGHHHHHH”, the “soluble on expression in E. coli” value is listed as “not soluble”.

For the sequence “MESRKLISATDIQYSGSLLNSLNEQRGHGLFCDVTVIVEDRKFRAHKNILSASSTYFHQLFSVAGQVVELSFIRAEIFAEILNYIYSSKIVRVRSDLLDELIKSGQLLGVKFIAAL”, the “soluble on expression in E. coli” value was “soluble”.

For the sequence “MKSVQDALYNWLTIHIVAKARPHDAAARDTASFFRAILENDFGVTAVDAVKDETNGQYIVEYVRGGETRAACFPLELAEAMWRQIEAEPEKYG”, the “soluble on expression in E. coli” value is “not soluble”.

For the sequence “MITLNHIAKTYYQGKLAVPILHGISLTIQSGEFVSIMGPSGSGKSTLMNIIGCLDRPTEGEYMLNDVNILTADESKLALIRNEYIGFVFQHFNLLPRLSAVENVELPLVYGGIKKAERRKRALEALGKVGLADRVHHLPNELSGGQKQRVAIARAIANNPTFIMADEPTGALDTKSGEQVMDIFTKLNAEGTTIVMVTHEEEVAAYSSRRIVLRDGKITEDRRCAV”, the “soluble on expression in E. coli” value is reported as “not soluble”.

On to “MFRIGQGFDVHEFAEGRPLIIGGITIPHEKGLIGHSDADVLLHTIADACLGAIAAGDIGKHFPDTDPAFKDADSAVLLQKVWEFVREQGYELGNLDCTIIAQKPKMAPHIESMRKRISELLETSIDNINVKATTTEKLGFTGREEGIASQAVVLLQKK”, for which the “soluble on expression in E. coli” value was “not soluble”.
